In this experiment the target is full-length human Bcl-2 protein (human, UniProt P10415 1-239). The experiment can be described thus: NMR; 5 mM DPC micelles, pH 6.0, 310 K.

Usually Kd stands for the free concentration of one partner at which half of the binding sites on the other are occupied at equilibrium, for simple one-to-one binding.

Sequence of full-length human Bcl-2 protein (P10415 other isoform, or with tags, fused parts or gaps): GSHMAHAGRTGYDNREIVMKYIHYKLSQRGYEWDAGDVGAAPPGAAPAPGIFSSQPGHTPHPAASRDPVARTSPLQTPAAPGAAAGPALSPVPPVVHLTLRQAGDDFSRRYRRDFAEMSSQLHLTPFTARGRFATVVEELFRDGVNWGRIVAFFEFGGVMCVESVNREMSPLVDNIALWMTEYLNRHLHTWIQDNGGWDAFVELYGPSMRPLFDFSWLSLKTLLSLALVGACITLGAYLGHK

Ac-QPPQDASTKKLSECLRRIGDELDSNMELQRMIADVD-NH2 [36-mer Bax-BH3 peptide from Mus musculus] displayed an equilibrium dissociation constant (Kd) of 143 µM.

The values above are taken from article PMC8079415 (2021).
